Like-named read-outs stand apart in the source and are kept apart here.
Assays:
[1] = target: cell-free expressed recombinant human p53 with N-terminal VSV-G epitope tag and C-terminal polyhisti (human) (UniProt P04637)
[2] = target: cell-free expressed recombinant human p53 with N-terminal VSV-G epitope tag and C-terminal polyhisti (human) (UniProt P04637); assay: fluorescence imaging of p53 beads against blank beads, anti-VSV-Cy3 antibody
[3] = target: cell-free expressed recombinant human KLHL12 with N-terminal VSV-G epitope tag and C-terminal polyhistidine and HSV epitope tags (human) (UniProt Q53G59)
[4] = target: cell-free expressed recombinant human p53 with N-terminal VSV-G epitope tag and C-terminal polyhisti (human) (UniProt P04637); remark: listed apart in the source
[5] = target: cell-free expressed recombinant human p53 with N-terminal VSV-G epitope tag and C-terminal polyhisti (human) (UniProt P04637); assay: fluorescence imaging of p53 positive against negative control blank beads
[6] = target: cell-free expressed recombinant human p53 with N-terminal VSV-G epitope tag and C-terminal polyhisti (human) (UniProt P04637); assay: Bead-ELISA, chemiluminescence normalised to bead fluorescence; mass-tagged beads

UniProt Q53G59, sequence (Q53G59 other isoform, or with tags, fused parts or gaps limits assumed): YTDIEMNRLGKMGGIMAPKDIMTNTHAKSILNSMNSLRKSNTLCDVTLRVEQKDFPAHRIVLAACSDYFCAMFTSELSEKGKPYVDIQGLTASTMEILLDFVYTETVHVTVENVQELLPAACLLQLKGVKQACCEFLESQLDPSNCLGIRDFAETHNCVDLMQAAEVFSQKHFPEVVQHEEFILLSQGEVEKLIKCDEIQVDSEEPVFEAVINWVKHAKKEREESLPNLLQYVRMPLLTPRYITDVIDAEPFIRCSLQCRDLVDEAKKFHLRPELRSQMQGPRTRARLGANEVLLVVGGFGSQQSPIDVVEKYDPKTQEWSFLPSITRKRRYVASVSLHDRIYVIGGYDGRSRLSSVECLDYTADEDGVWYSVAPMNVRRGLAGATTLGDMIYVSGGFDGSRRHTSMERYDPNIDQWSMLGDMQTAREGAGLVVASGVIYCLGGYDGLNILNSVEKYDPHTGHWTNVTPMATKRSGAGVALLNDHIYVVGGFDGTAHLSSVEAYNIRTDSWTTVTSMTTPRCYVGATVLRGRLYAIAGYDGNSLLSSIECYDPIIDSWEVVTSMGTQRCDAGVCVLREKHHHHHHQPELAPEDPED

Question: How did the reduction of the binding capacity of the beads for p53 by the mass tag [1] turn out when “anti-HSV tag monoclonal antibody (EMD Biosciences)” was run?
Answer: 50%

Question: For “fluorescently (Cy3) labeled anti-VSV-G tag antibody (Sigma-Aldrich)”, which signal-to-noise [2] is on record?
Answer: 25 :1

Question: And the signal-to-noise ratio [3]?
Answer: 10 :1

Question: What about the signal-to-noise ratio [4] of the same substance?
Answer: 60 :1

Question: Which signal-to-noise ratio [5] does the source give for “fluorescently labeled (Alexa Fluor 594) anti-p53 antibody, clone BP53-12 (Santa Cruz Biotechnology)” here?
Answer: > 100 :1

Question: Which signal-to-noise ratio [6] does the source give for “monoclonal anti-VSV-G horseradish peroxidase (HRP) conjugated antibody, Clone P5D4” here?
Answer: 42 :1

Question: And the signal-to-noise ratio [1]?
Answer: 82 :1

Source: patent US20140235471A1
